Experimental data taken from the supplement of paper PMC6757056.
± gives the standard deviation of the averaged measurements.

B1: library; a variant is named by its letters at N, in order (parent)
chain: GCUGUCACCGGUGCUUGGUACGUUAUAUUCAGCCGGUCUGAUGAGUCUNNNNNNAGACGAAACAGC

Columns and labels:
(6R,S)-folinic acid [1] = variants of: B1; test: FACS-Seq fitted mean relative fluorescence mCherry/BFP without ligand (log10 relative fluorescence); HEK293T overexpressing SLC46A1; higher = higher reporter protein expression; conditions: without (6R,S)-folinic acid; ligand present: no
How it was run: (§1)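 Lentivirally transduced HEK293T libraries carried an mCherry reporter with the ribozyme switch and an EF1α-BFP marker. Transduced cells were enriched, then incubated with or without ligand for 48 h and sorted into 6 bins by mCherry/BFP. Genomic DNA from each bin was PCR-amplified, barcoded and sequenced on MiSeq. Fluorescence was the fitted normal mean of log10(mCherry/BFP) bin counts, scaled to five spiked-in control ribozymes.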

(6R,S)-folinic acid [2] = variants of: B1; test: normalized RNA/DNA level without ligand (relative to sTRSVctl = 100) (log10 (% of sTRSVctl)); HEK293T overexpressing SLC46A1; higher = less ribozyme self-cleavage, higher mRNA level; conditions: without (6R,S)-folinic acid; ligand present: no
How it was run: (§2)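 RNA level was computed as RNA reads over DNA reads divided by a spiked-in non-cleaving sequence or by the top sequences, then scaled and log-transformed. Scaling was ×100 with log10, the top group was 25 sequences, and the threshold was ≥100 DNA reads. The reads came from HEK293T cells transfected at 4 µg per 6-well well with ribozyme switch library plasmids (mCherry, or eGFP in some ligand experiments). Total RNA was extracted with EDTA 72 h after transfection, with any ligand added 1 h before it.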

(6R,S)-folinic acid [3] = variants of: B1; test: FACS-Seq fitted mean relative fluorescence mCherry/BFP with ligand (log10 relative fluorescence); HEK293T overexpressing SLC46A1; ligand concentration (+) FACS-Seq: 6 mM; higher = higher reporter protein expression; conditions: with (6R,S)-folinic acid; ligand present: yes
How it was run: as §1

(6R,S)-folinic acid [4] = variants of: B1; test: normalized RNA/DNA level with ligand (relative to sTRSVctl = 100) (log10 (% of sTRSVctl)); HEK293T overexpressing SLC46A1; ligand concentration (+) RNA-Seq: 6 mM; higher = less ribozyme self-cleavage, higher mRNA level; conditions: with (6R,S)-folinic acid; ligand present: yes
How it was run: as §2

Variant	FACS-Seq fitted mean (log10) ((6R,S)-folinic acid [1])	normalized RNA/DNA level without ligand (log10) ((6R,S)-folinic acid [2])	FACS-Seq fitted mean (log10) ((6R,S)-folinic acid [3])	normalized RNA/DNA level with ligand (log10) ((6R,S)-folinic acid [4])
UGAAAG	0.184 ± 0.14	1.8081 ± 0.0016	0.436 ± 0.3	1.98 ± 0.031
UGAAAU	0.196 ± 0.11	1.81 ± 0.027	0.516 ± 0.39	1.97 ± 0.027
GGAAUU	0.362 ± 0.1	2.046 ± 0.0046	0.236 ± 0.27	2.061 ± 0.016
GGAAUG	0.589 ± 0.011	1.973 ± 0.0085	0.668 ± 0.1	2.03 ± 0.029
GGAAUC	-0.317 ± 0.23	2.055 ± 0.0066	-0.244 ± 0.51	2.05 ± 0.023
GGACCG	0.438 ± 0.24	2.065 ± 0.0084	0.0255 ± 0.12	2.02 ± 0.031
AGCAAA	0.455 ± 0.047	1.979 ± 0.004	0.532 ± 0.21	2 ± 0.028
AGAUCA	-0.134 ± 0.025	2.01 ± 0.005	-0.625 ± 0.07	2 ± 0.058
GGACAA	0.352 ± 0.14	1.98 ± 0.0036	0.748 ± 0.25	1.99 ± 0.02
GGGACU	0.111 ± 0.0086	2.023 ± 0.011	0.0545 ± 0.19	2.008 ± 0.019
GGGACA	0.123 ± 0.064	1.997 ± 0.016	0.248 ± 0.14	2 ± 0.063
UGCUGA	0.285 ± 0.21	2.02 ± 0.024	0.321 ± 0.12	2.05 ± 0.043
UGCUGG	0.145 ± 0.014	1.85 ± 0.025	0.325 ± 0.18	2.02 ± 0.065
UGAAUG	0.0422 ± 0.017	1.758 ± 0.0067	0.2668 ± 0.0023	1.98 ± 0.021
UGAUGG	0.038 ± 0.0089	1.625 ± 0.0082	0.583 ± 0.093	1.91 ± 0.038
UGAUGA	0.447 ± 0.11	1.865 ± 0.0033	0.525 ± 0.05	2.01 ± 0.047
UGAUGU	0.318 ± 0.071	1.93 ± 0.021	0.125 ± 0.22	2.02 ± 0.044
GGCGAU	0.444 ± 0.0094	2.07 ± 0.027	0.55 ± 0.15	2.037 ± 0.015
GGCGAC	0.216 ± 0.01	1.998 ± 0.003	0.128 ± 0.013	1.989 ± 0.0031
GGACGU	0.583 ± 0.13	1.955 ± 0.015	0.529 ± 0.32	1.95 ± 0.024
GGACGA	0.242 ± 0.039	2.022 ± 0.011	0.493 ± 0.027	2.042 ± 0.011
UGAGCG	0.157 ± 0.15	1.736 ± 0.012	0.218 ± 0.39	1.98 ± 0.024
UGAGCU	0.387 ± 0.081	2 ± 0.013	0.479 ± 0.087	2.019 ± 0.012
UGCGAU	0.213 ± 0.026	1.85 ± 0.019	-0.0289 ± 0.033	1.98 ± 0.029

Variant	FACS-Seq fitted mean (log10) ((6R,S)-folinic acid [1])	normalized RNA/DNA level without ligand (log10) ((6R,S)-folinic acid [2])	FACS-Seq fitted mean (log10) ((6R,S)-folinic acid [3])	normalized RNA/DNA level with ligand (log10) ((6R,S)-folinic acid [4])
UGCGAG	0.31 ± 0.21	1.71 ± 0.027	-0.231 ± 0.053	1.96 ± 0.058
UGCGAC	0.375 ± 0.053	1.979 ± 0.018	0.26 ± 0.29	2.02 ± 0.034
AGCCUG	0.71 ± 0.23	2.01 ± 0.027	0.405 ± 0.12	2.05 ± 0.051
AGCCUA	0.465 ± 0.015	2.021 ± 0.012	0.612 ± 0.31	2.01 ± 0.021
AGGAGG	0.585 ± 0.15	1.922 ± 0.0095	0.614 ± 0.2	2.05 ± 0.03
AGGAGA	0.26 ± 0.062	1.931 ± 0.007	0.172 ± 0.078	2.018 ± 0.017
GGAGAC	0.571 ± 0.081	2.0007 ± 0.00018	0.512 ± 0.3	2.009 ± 0.0055
GGAGAU	0.0885 ± 0.2	1.959 ± 0.0067	-0.253 ± 0.085	1.99 ± 0.049
GGAGAA	0.29 ± 0.13	1.961 ± 0.013	0.201 ± 0.0069	2.01 ± 0.022
GGAGCC	0.129 ± 0.011	2.0238 ± 0.0014	0.0129 ± 0.069	2.026 ± 0.02
GGAUUU	0.647 ± 0.23	2.02 ± 0.034	0.596 ± 0.19	2.01 ± 0.048
GGAUUC	0.835 ± 0.03	2.045 ± 0.0076	0.746 ± 0.041	2.021 ± 0.016
AGAGCU	0.596 ± 0.05	2.019 ± 0.006	0.275 ± 0.32	2.01 ± 0.029
GGACUA	0.287 ± 0.07	1.989 ± 0.0053	0.202 ± 0.044	1.97 ± 0.033
CGGAUA	0.0197 ± 0.04	1.9689 ± 0.0014	-0.118 ± 0.034	1.98 ± 0.061
CGGAUG	0.00208 ± 0.054	2 ± 0.024	-0.0609 ± 0.15	2.02 ± 0.043
GGAAGA	0.0463 ± 0.13	1.993 ± 0.0044	0.239 ± 0.2	2.04 ± 0.031
AGGAAU	0.338 ± 0.1	1.988 ± 0.016	0.0683 ± 0.36	2 ± 0.029
AGGAAC	0.484 ± 0.041	2 ± 0.012	0.434 ± 0.11	2.018 ± 0.02
CGAGGG	0.504 ± 0.034	1.844 ± 0.0078	0.672 ± 0.22	1.968 ± 0.011
UGGAAG	0.369 ± 0.058	1.653 ± 0.0055	0.695 ± 0.017	1.96 ± 0.039
AGACAG	0.659 ± 0.017	1.941 ± 0.0083	0.854 ± 0.36	2.01 ± 0.026
AGAUAA	0.0208 ± 0.12	1.96 ± 0.006	0.14 ± 0.2	1.981 ± 0.012
UGGACG	0.175 ± 0.0034	1.778 ± 0.013	0.472 ± 0.059	1.97 ± 0.029

Variant	FACS-Seq fitted mean (log10) ((6R,S)-folinic acid [1])	normalized RNA/DNA level without ligand (log10) ((6R,S)-folinic acid [2])	FACS-Seq fitted mean (log10) ((6R,S)-folinic acid [3])	normalized RNA/DNA level with ligand (log10) ((6R,S)-folinic acid [4])
UGGACA	0.24 ± 0.025	1.95 ± 0.0054	0.186 ± 0.017	2.019 ± 0.019
UGGACC	0.168 ± 0.11	2.01 ± 0.033	0.0739 ± 0.15	1.97 ± 0.033
UGCCAA	0.194 ± 0.021	1.956 ± 0.015	0.168 ± 0.2	2.01 ± 0.0051
UGCCAC	0.366 ± 0.066	1.985 ± 0.017	0.438 ± 0.13	1.977 ± 0.013
AGCACU	0.282 ± 0.032	2.02 ± 0.025	0.113 ± 0.16	2 ± 0.028
UGACAA	-0.327 ± 0.12	1.952 ± 0.0062	-0.72 ± 0.24	2.024 ± 0.018
UGACAG	0.327 ± 0.16	1.82 ± 0.022	0.34 ± 0.028	1.971 ± 0.0094
GGCUUG	0.434 ± 0.019	2.078 ± 0.012	0.292 ± 0.34	2.049 ± 0.018
CGCUGC	0.0944 ± 0.13	2.091 ± 0.012	-0.0623 ± 0.071	2.0496 ± 0.0017
CGAGAA	0.311 ± 0.059	1.9567 ± 0.0017	0.426 ± 0.19	2.01 ± 0.039
UGCUUG	0.46 ± 0.098	1.76 ± 0.018	0.655 ± 0.047	1.96 ± 0.034
AGAUGA	0.308 ± 0.011	1.9723 ± 0.0012	0.112 ± 0.046	2.02 ± 0.038
AGAUGG	0.589 ± 0.0066	1.91 ± 0.0092	0.62 ± 0.25	2.02 ± 0.028
UGCUAA	0.427 ± 0.062	1.97 ± 0.026	0.537 ± 0.11	2.018 ± 0.016
UGCUAG	0.312 ± 0.12	1.76 ± 0.028	0.441 ± 0.057	1.972 ± 0.014
AGGCAA	0.293 ± 0.14	1.994 ± 0.016	0.205 ± 0.1	1.994 ± 0.019
GGCCAA	0.479 ± 0.052	2.045 ± 0.013	0.409 ± 0.049	2.024 ± 0.0077
GGCCAU	0.522 ± 0.091	2.05 ± 0.023	0.337 ± 0.19	2.01 ± 0.063
UGAUAC	0.272 ± 0.049	1.984 ± 0.019	0.128 ± 0.094	2 ± 0.044
UGAUAA	0.48 ± 0.24	1.926 ± 0.019	0.632 ± 0.35	2.004 ± 0.017
AGCUUG	0.529 ± 0.0056	1.964 ± 0.002	0.349 ± 0.32	2.03 ± 0.036
AGACCU	0.618 ± 0.15	2.02 ± 0.041	0.641 ± 0.01	2.05 ± 0.027
AGACCA	0.1 ± 0.31	2.05 ± 0.0039	0.262 ± 0.072	2.03 ± 0.028
